Consider three molecules from US20090004749, “METHOD AND KIT FOR DETERMINING THE AMOUNT OF DNA BINDING PROTEIN” (SYSMEX CORPORATION, published 2009).

For series [1], the target named is T1, NF-κB (recombinant, p50) (UniProt P19838 P19838:1-433). Nature of the series: competition; FCS; no competition at 50 nM; diffusion time same as without competitor. Particulars: tags: Promega; detected with anti-p50 antibody; chain copies: 2; hairpin, stem-loop with AAAA loop. The method, then:
(§1) As a pure-line sample, 0.6 μg/μl solution of recombinant NF-κB was used. […] As the control, a pure-line sample-free sample using the fluorescent-labeled probe Pfw only as a nucleic acid probe was used. In the Reference Example, the sample to which an anti-p50 antibody had further been added was used. The reaction time was 10 minutes for each sample.

In series [2] the target is T1, NF-κB (recombinant, p50). Nature of the series: fluorescence correlation spectroscopy; 1 nM probe, room temperature; 10 min. The following applies: tags: Promega; detected with anti-p50 antibody; chain copies: 2; label: 5'-TAMRA; hairpin, stem-loop with AAAA loop. As to the method: as §1
Series [3] has as its target T1, NF-κB (recombinant, p50). Briefly: competition; FCS; unlabeled competitor against 1 nM Pfw. Particulars: tags: Promega; detected with anti-p50 antibody; chain copies: 2; hairpin, stem-loop with AAAA loop. The method, then: as §1

T1 sequence (P19838 1-433, one chain of several): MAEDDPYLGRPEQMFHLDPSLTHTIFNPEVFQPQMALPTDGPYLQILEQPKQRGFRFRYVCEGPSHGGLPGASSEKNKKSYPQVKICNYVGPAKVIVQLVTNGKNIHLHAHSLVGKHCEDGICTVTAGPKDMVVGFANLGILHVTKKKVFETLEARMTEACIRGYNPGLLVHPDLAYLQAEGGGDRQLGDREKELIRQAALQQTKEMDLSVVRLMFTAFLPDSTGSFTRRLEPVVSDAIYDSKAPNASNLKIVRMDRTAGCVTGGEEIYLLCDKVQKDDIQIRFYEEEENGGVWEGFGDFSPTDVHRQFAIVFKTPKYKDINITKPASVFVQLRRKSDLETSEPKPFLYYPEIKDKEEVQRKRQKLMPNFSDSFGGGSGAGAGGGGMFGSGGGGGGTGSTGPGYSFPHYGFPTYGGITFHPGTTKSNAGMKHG

B1: Pn (structured_DNA)
DNA: CAGGCGCGTTTTGACCATCTTAAAAAAGATGGTCAAAACGCGCCTG
Turning to B1, the binding result in the series with NF-κB (recombinant, p50) [1] is given as “no binding”.

B2: Pfw (structured_DNA)
DNA: AGTTGAGGGGACTTTCCCAGGCAAAAGCCTGGGAAAGTCCCCTCAACT
In the case of B2, the binding result in the series with NF-κB (recombinant, p50) [2] is reported as “binds”.

B3: Pw (structured_DNA)
DNA: B2 DNA
For B3, the binding result in the series with NF-κB (recombinant, p50) [3] is “binds”.
